This passage reports Kd results from paper PMC10484726, “Archaeal Hel308 suppresses recombination through a catalytic switch that controls DNA annealing”.

The target in the data set is T1, Mth-Hel308 wild type (Methanothermobacter thermautotrophicus, UniProt O26901 1-690).
T1 sequence: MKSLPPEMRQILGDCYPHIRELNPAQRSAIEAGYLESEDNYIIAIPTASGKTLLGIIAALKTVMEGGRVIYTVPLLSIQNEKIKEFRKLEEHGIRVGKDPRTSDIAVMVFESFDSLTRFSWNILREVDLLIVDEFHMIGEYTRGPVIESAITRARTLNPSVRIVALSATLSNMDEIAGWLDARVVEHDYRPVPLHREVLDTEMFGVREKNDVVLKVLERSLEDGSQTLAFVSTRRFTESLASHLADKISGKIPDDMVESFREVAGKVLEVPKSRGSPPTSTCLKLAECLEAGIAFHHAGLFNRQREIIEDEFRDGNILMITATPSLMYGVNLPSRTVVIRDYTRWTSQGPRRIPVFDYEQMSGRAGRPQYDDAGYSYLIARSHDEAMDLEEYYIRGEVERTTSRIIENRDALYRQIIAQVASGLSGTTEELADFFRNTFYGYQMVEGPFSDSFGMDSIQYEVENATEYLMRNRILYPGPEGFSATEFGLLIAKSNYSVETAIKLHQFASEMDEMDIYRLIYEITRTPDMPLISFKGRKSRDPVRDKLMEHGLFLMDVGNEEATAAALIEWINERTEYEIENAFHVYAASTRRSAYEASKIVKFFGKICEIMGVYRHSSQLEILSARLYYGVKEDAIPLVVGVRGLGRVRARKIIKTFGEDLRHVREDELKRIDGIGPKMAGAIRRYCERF
As to the kind of experiment: EMSA; 5 mM EDTA; 25 nM DNA; EMSA: 20 mM Tris-HCl pH 7.5, 100 ug/ml BSA, 7% glycerol, 25 mM DTT, 5 mM EDTA, 25 nM Cy5-DNA; 5% TBE gel; no added salt stated; 37 C 10 min stated for duplex DNA reactions. The conditions noted are these: protein: recombinant; tags: N-terminal His6; label: Cy5 (end label); fork.

One may read the Kd as the free concentration of one partner at which half of the binding sites on the other are occupied at equilibrium, for simple one-to-one binding.

B1: forked DNA substrate (dsDNA)
DNA 1: GTCGGATCCTCTAGACAGCTCCATGATCACTGGCACTGGTAGAATTCGGC
DNA 2: CAACGTCATAGACGATTACATTGCTACATGGAGCTGTCTAGAGGATCCGA
Turning to B1, the Kd is 68.2 nM.
